These sequences were tested against Fyn (UniProt P06241) (assay: phosphorylation enrichment, bacterial display (enrichment ratio); higher = better substrate or ligand; peptides without Tyr show the background).
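Also: 11-residue human phosphosite peptides and single-mutation variants displayed on the E. coli surface, counted by deep sequencing, each peptide's frequency after selection divided by its frequency in the unselected input library; frequency after pTyr selection over input frequency; kinase dosed for 20-30% of maximal phosphorylation in three min.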

Fyn, sequence (P06241 whole entry, looked up): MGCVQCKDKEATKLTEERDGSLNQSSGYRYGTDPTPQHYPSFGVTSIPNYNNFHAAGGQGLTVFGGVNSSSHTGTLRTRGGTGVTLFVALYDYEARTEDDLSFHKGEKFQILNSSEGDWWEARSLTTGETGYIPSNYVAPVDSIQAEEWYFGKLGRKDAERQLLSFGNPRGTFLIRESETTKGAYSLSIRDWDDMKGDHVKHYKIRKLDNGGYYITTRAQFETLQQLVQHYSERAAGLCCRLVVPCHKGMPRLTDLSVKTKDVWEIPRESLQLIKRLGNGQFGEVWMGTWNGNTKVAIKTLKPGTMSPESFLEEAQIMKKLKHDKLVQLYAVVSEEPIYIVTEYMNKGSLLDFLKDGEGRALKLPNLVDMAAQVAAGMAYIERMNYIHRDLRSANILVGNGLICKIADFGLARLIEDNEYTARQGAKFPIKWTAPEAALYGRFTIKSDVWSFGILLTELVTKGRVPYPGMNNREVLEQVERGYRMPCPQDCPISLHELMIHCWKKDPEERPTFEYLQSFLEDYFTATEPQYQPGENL

Sequence | phosphorylation enrichment
ADGLEYPRTGL [MMUT_Y287_S288P] | 0.508
SGTYQYIIAKF [FOXL2_Y83_I80T] | 0.749
SVVVPYQPPEV [TP53_Y220_E221Q] | 0.399
TVDASYYGGRG [ANTXR2_Y380] | 0.73
DEEEEYEYMNR [ERBB3_Y1197_D1194E] | 0.567
TGILLHGLASR [QARS1_Y57_Y57H] | 0.281
RFMELYDLNRD [BBS2_Y648_YF] | 1.25
EACPSYSHVVL [CHST6_Y168_R166P] | 0.411
GRRGQYVMLSE [TTC7A_Y396] | 0.546
WAFNLYDINKF [KCNIP3_Y174_D179Y_YF] | 2.08
KGPGEYVNIEF [IRS1_Y896_S892G] | 0.58
QEIATYRRQLE [KRT14_Y415_L418Q] | 0.83
HEPKGYNANFC [TGFB2_Y341] | 0.558
YYLGKYLQEVL [KLB_Y910] | 0.568
DFTSRYLNASD [PKHD1_Y828] | 0.468
SHEELYKWFTS [DYNC1H1_Y3051] | 0.918
LRTAVHHEILI [CREBBP_Y1450_Y1450H] | 0.508

Sequence | phosphorylation enrichment
RAMPVYKKAEH [TP63_Y231] | 0.337
CNLDTYQKRLR [PLA2G2D_Y126_R121C] | 0.463
HNVPIYEGFAL [ACTA1_Y168_YF] | 15.1
LKALHYMAQTS [SACS_Y3367_V3369A] | 0.705
LLREWYLQDPY [SIX3_Y225] | 1.08
YRTPGYREVVI [TNS2_Y673_A670T] | 0.425
CTTIFYNFMCN [TP53_Y234_H233Y_YF] | 0.592
VGTTAYMAPEA [IRAK4_Y354] | 0.407
HEKKAYSFCGT [RPS6KA3_Y226] | 1.09
TLRKTYGEMAD [ALB_Y108_E106K] | 0.387
GISDEYHMIRH [GCDH_Y398_V400M] | 0.58
QMQNPYSSHSS [MUC13_Y501_R503S] | 1.15
QYQEKYKQMEQ [HCN4_Y531_V534M] | 0.547
VDGFVYKLHPS [GCK_Y413_S411F] | 0.53
KLQKKYGPIFS [CYP17A1_Y60_YF] | 0.38
RLNCIYFKDQT [RS1_Y165_W163C_YF] | 0.59

What follows are sequences tested against FGFR3 (UniProt P22607) in the same assay as above.
FGFR3, sequence (P22607 whole entry, looked up): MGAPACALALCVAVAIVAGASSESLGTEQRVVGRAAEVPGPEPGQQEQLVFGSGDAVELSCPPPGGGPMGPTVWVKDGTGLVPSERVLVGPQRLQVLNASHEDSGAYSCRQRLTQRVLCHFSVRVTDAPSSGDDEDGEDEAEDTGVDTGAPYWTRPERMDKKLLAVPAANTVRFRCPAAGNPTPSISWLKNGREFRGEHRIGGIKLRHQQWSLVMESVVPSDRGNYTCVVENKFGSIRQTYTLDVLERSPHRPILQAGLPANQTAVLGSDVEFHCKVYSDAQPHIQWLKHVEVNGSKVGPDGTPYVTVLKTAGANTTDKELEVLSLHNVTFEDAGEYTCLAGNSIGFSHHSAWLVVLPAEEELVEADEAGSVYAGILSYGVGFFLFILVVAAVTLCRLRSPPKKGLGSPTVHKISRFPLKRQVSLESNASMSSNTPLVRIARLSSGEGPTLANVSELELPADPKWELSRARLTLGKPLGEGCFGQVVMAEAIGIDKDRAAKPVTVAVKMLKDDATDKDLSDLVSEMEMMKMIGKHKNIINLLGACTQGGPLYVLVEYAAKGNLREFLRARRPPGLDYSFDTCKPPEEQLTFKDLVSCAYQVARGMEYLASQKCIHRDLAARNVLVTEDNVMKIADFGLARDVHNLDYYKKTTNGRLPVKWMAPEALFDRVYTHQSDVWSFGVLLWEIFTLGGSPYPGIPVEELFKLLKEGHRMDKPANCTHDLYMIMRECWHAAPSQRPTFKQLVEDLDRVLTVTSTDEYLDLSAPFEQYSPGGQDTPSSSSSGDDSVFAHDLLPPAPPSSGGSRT

Sequence | phosphorylation enrichment
ADGLEYPRTGL [MMUT_Y287_S288P] | 0.59
SGTYQYIIAKF [FOXL2_Y83_I80T] | 2.42
SVVVPYQPPEV [TP53_Y220_E221Q] | 0.596
TVDASYYGGRG [ANTXR2_Y380] | 0.561
DEEEEYEYMNR [ERBB3_Y1197_D1194E] | 0.665
TGILLHGLASR [QARS1_Y57_Y57H] | 0.379
RFMELYDLNRD [BBS2_Y648_YF] | 0.883
EACPSYSHVVL [CHST6_Y168_R166P] | 0.51
GRRGQYVMLSE [TTC7A_Y396] | 0.532
WAFNLYDINKF [KCNIP3_Y174_D179Y_YF] | 0.669
KGPGEYVNIEF [IRS1_Y896_S892G] | 1.14
QEIATYRRQLE [KRT14_Y415_L418Q] | 0.808
HEPKGYNANFC [TGFB2_Y341] | 0.596
YYLGKYLQEVL [KLB_Y910] | 2.92
DFTSRYLNASD [PKHD1_Y828] | 0.572
SHEELYKWFTS [DYNC1H1_Y3051] | 3.6
LRTAVHHEILI [CREBBP_Y1450_Y1450H] | 0.812

Sequence | phosphorylation enrichment
RAMPVYKKAEH [TP63_Y231] | 0.238
CNLDTYQKRLR [PLA2G2D_Y126_R121C] | 0.462
HNVPIYEGFAL [ACTA1_Y168_YF] | 0.785
LKALHYMAQTS [SACS_Y3367_V3369A] | 0.887
LLREWYLQDPY [SIX3_Y225] | 1.12
YRTPGYREVVI [TNS2_Y673_A670T] | 0.447
CTTIFYNFMCN [TP53_Y234_H233Y_YF] | 1.12
VGTTAYMAPEA [IRAK4_Y354] | 0.517
HEKKAYSFCGT [RPS6KA3_Y226] | 1.68
TLRKTYGEMAD [ALB_Y108_E106K] | 0.51
GISDEYHMIRH [GCDH_Y398_V400M] | 4.43
QMQNPYSSHSS [MUC13_Y501_R503S] | 0.611
QYQEKYKQMEQ [HCN4_Y531_V534M] | 0.827
VDGFVYKLHPS [GCK_Y413_S411F] | 0.55
KLQKKYGPIFS [CYP17A1_Y60_YF] | 0.415
RLNCIYFKDQT [RS1_Y165_W163C_YF] | 0.599

These sequences were tested against EPHB2 (UniProt P29323) in the same assay as above.
EPHB2, sequence (P29323 whole entry, looked up): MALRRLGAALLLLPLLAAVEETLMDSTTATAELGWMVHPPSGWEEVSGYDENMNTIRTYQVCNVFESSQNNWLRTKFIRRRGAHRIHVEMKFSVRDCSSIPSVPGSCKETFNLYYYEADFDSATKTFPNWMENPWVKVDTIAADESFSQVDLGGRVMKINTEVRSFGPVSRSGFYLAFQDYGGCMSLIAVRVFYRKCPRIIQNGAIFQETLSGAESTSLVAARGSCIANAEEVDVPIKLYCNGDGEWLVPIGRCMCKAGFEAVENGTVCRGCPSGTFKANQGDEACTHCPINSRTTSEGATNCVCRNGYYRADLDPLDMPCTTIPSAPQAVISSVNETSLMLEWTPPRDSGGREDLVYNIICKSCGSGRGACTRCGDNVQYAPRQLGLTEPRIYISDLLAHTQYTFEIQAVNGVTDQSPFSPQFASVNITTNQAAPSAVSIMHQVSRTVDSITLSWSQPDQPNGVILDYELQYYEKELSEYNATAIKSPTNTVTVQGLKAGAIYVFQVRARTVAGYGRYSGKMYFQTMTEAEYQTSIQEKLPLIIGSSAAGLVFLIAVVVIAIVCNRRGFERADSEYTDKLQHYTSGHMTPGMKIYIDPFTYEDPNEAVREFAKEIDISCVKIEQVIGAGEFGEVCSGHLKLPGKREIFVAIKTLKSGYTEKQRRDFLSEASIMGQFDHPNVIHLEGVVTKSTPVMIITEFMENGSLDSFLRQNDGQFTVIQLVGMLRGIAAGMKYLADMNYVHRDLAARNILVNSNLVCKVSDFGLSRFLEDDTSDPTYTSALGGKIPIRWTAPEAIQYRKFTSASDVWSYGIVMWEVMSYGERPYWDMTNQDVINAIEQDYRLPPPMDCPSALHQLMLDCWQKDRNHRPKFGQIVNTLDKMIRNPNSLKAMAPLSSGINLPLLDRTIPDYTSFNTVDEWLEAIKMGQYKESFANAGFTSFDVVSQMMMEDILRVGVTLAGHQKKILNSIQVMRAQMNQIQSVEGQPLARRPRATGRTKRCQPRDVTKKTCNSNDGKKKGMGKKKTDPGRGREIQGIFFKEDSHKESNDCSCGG

Sequence | phosphorylation enrichment
ADGLEYPRTGL [MMUT_Y287_S288P] | 0.55
SGTYQYIIAKF [FOXL2_Y83_I80T] | 1.53
SVVVPYQPPEV [TP53_Y220_E221Q] | 0.51
TVDASYYGGRG [ANTXR2_Y380] | 0.503
DEEEEYEYMNR [ERBB3_Y1197_D1194E] | 0.625
TGILLHGLASR [QARS1_Y57_Y57H] | 0.328
RFMELYDLNRD [BBS2_Y648_YF] | 0.812
EACPSYSHVVL [CHST6_Y168_R166P] | 0.521
GRRGQYVMLSE [TTC7A_Y396] | 0.494
WAFNLYDINKF [KCNIP3_Y174_D179Y_YF] | 3.11
KGPGEYVNIEF [IRS1_Y896_S892G] | 0.639
QEIATYRRQLE [KRT14_Y415_L418Q] | 1.27
HEPKGYNANFC [TGFB2_Y341] | 0.719
YYLGKYLQEVL [KLB_Y910] | 0.593
DFTSRYLNASD [PKHD1_Y828] | 0.407
SHEELYKWFTS [DYNC1H1_Y3051] | 0.577
LRTAVHHEILI [CREBBP_Y1450_Y1450H] | 0.487

Sequence | phosphorylation enrichment
RAMPVYKKAEH [TP63_Y231] | 0.26
CNLDTYQKRLR [PLA2G2D_Y126_R121C] | 0.582
HNVPIYEGFAL [ACTA1_Y168_YF] | 28.1
LKALHYMAQTS [SACS_Y3367_V3369A] | 0.634
LLREWYLQDPY [SIX3_Y225] | 0.928
YRTPGYREVVI [TNS2_Y673_A670T] | 0.453
CTTIFYNFMCN [TP53_Y234_H233Y_YF] | 0.634
VGTTAYMAPEA [IRAK4_Y354] | 0.379
HEKKAYSFCGT [RPS6KA3_Y226] | 1.18
TLRKTYGEMAD [ALB_Y108_E106K] | 0.355
GISDEYHMIRH [GCDH_Y398_V400M] | 0.522
QMQNPYSSHSS [MUC13_Y501_R503S] | 0.718
QYQEKYKQMEQ [HCN4_Y531_V534M] | 0.507
VDGFVYKLHPS [GCK_Y413_S411F] | 0.484
KLQKKYGPIFS [CYP17A1_Y60_YF] | 0.39
RLNCIYFKDQT [RS1_Y165_W163C_YF] | 0.732

The sequences below were run against Hck (UniProt P08631) in the same assay as above.
Hck, sequence (P08631 whole entry, looked up): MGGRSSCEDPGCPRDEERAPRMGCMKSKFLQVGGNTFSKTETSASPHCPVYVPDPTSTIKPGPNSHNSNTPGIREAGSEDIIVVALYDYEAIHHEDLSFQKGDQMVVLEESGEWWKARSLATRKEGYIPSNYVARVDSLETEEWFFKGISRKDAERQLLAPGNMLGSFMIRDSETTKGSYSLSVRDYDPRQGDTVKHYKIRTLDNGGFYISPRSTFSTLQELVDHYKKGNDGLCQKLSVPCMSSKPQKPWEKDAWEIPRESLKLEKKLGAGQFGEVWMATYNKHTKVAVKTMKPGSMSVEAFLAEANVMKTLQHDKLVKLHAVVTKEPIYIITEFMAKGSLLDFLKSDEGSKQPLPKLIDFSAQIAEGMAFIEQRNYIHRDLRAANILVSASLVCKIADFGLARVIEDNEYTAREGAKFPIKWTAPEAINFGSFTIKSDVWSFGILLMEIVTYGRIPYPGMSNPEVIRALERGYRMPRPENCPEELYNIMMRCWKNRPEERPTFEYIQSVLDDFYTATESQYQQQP

Sequence | phosphorylation enrichment
ADGLEYPRTGL [MMUT_Y287_S288P] | 0.47
SGTYQYIIAKF [FOXL2_Y83_I80T] | 2.06
SVVVPYQPPEV [TP53_Y220_E221Q] | 0.445
TVDASYYGGRG [ANTXR2_Y380] | 1.14
DEEEEYEYMNR [ERBB3_Y1197_D1194E] | 0.484
TGILLHGLASR [QARS1_Y57_Y57H] | 0.301
RFMELYDLNRD [BBS2_Y648_YF] | 1.14
EACPSYSHVVL [CHST6_Y168_R166P] | 0.463
GRRGQYVMLSE [TTC7A_Y396] | 0.512
WAFNLYDINKF [KCNIP3_Y174_D179Y_YF] | 3.36
KGPGEYVNIEF [IRS1_Y896_S892G] | 0.498
QEIATYRRQLE [KRT14_Y415_L418Q] | 0.559
HEPKGYNANFC [TGFB2_Y341] | 0.553
YYLGKYLQEVL [KLB_Y910] | 0.565
DFTSRYLNASD [PKHD1_Y828] | 0.47
SHEELYKWFTS [DYNC1H1_Y3051] | 1.25
LRTAVHHEILI [CREBBP_Y1450_Y1450H] | 0.643

Sequence | phosphorylation enrichment
RAMPVYKKAEH [TP63_Y231] | 0.27
CNLDTYQKRLR [PLA2G2D_Y126_R121C] | 0.475
HNVPIYEGFAL [ACTA1_Y168_YF] | 14.1
LKALHYMAQTS [SACS_Y3367_V3369A] | 0.623
LLREWYLQDPY [SIX3_Y225] | 0.85
YRTPGYREVVI [TNS2_Y673_A670T] | 0.341
CTTIFYNFMCN [TP53_Y234_H233Y_YF] | 0.562
VGTTAYMAPEA [IRAK4_Y354] | 0.434
HEKKAYSFCGT [RPS6KA3_Y226] | 1.49
TLRKTYGEMAD [ALB_Y108_E106K] | 0.433
GISDEYHMIRH [GCDH_Y398_V400M] | 0.891
QMQNPYSSHSS [MUC13_Y501_R503S] | 0.449
QYQEKYKQMEQ [HCN4_Y531_V534M] | 0.431
VDGFVYKLHPS [GCK_Y413_S411F] | 0.419
KLQKKYGPIFS [CYP17A1_Y60_YF] | 0.383
RLNCIYFKDQT [RS1_Y165_W163C_YF] | 0.77

Reference: the supplement of paper PMC10065799, “High-throughput profiling of sequence recognition by tyrosine kinases and SH2 domains using bacterial peptide display” (eLife, 2023)
